The values below come from EP4613767A1 (Shanghai Qilu Pharmaceutical Research and Development …, dated 2025).

Test [1] has as its target T1, human CD3 naturally expressed on Jurkat cells (human, UniProt P07766 23-207; P04234 22-171; P09693 23-182).
T1 construct: whole, on cells; also called hCD3
Nature of the test: FACS on Jurkat cells naturally expressing human CD3.

Test [2] has as its target T2, monkey GPC3 protein (Acro, Cat. No.: GP3-C522a) (monkey).
T2 construct: Bought recombinant protein
Nature of the test: SPR Biacore 8K, anti-human Fc on CM5 chip, GPC3 protein as analyte, 1:1 fit. (In general: In SPR one partner is held on a chip, and binding of the other changes the refractive index at the surface.)

Test [3] has as its target T3, human CD3 E&D protein (Acro, Cat. No.: CDD-H52W1) (human, UniProt P07766 23-126; P04234 22-105).
T3 construct: Bought recombinant protein
Nature of the test: SPR Biacore 8K, CD3 E&D immobilised on CM5 chip, antibody as analyte, 1:1 fit.

Test [4] addresses monkey CD3 E&D protein (Acro, Cat. No.: CDD-C52W4) (monkey, UniProt Q95LI5 22-117; Q95LI8 22-105). Described as above.

Chain of monkey CD3 E&D protein (Acro, Cat. No.: CDD-C52W4) (Q95LI5 22-117, chain 1 of 2): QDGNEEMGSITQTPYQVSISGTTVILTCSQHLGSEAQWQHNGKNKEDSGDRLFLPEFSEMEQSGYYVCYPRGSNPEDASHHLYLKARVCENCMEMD
Chain of monkey CD3 E&D protein (Acro, Cat. No.: CDD-C52W4) (Q95LI8 22-105, chain 2 of 2): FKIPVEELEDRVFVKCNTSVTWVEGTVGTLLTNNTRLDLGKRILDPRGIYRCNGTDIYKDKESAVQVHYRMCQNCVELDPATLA
T3 sequence (P07766 23-126, chain 1 of 2): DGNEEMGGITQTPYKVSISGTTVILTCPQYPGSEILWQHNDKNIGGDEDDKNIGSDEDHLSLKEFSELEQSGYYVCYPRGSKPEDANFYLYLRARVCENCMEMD
T3 sequence (P04234 22-105, chain 2 of 2): as the sequence (Q95LI8 22-105, chain 2 of 2) above, with V5I, K15N, V20I, T32S, N33D, N34I, A64T, N74S, L83V counted along it
T1 sequence (P07766 23-207, chain 1 of 3): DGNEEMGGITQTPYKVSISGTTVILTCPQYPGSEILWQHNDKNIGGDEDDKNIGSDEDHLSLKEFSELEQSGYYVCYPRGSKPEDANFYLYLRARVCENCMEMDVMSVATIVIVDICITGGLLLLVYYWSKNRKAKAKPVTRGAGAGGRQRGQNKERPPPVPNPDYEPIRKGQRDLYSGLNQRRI
T1 sequence (P04234 22-171, chain 2 of 3): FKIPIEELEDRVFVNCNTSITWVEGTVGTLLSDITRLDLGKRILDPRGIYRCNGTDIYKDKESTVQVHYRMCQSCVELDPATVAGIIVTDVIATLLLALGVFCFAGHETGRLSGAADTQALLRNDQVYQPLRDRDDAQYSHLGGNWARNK
T1 sequence (P09693 23-182, chain 3 of 3): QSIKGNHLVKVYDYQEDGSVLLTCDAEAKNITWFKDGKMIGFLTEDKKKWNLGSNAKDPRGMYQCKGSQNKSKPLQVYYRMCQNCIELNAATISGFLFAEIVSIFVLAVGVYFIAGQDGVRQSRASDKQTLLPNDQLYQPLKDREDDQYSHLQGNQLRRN

B1: bispecific antigen-binding molecule G100 (bispecific antibody)
chain 1: not shown
chain 2: EVKLVESGGGLVQPGGSLKLSCAASGFTFNTYAMNWVRQAPGKGLEWVARIRSKYNNYATYYADSVKDRFTISRDDAKNTLYLQMNNLRTEDTAVYYCVRHGNFGNSYVSWFAYWGQGTLVTVSSGGGGSGGGGSGGGGSAQAVVTQEPSLTVSPGGTVTLTCRSSTGAVTTSNYANWVQQKPGQAPRGLIGGTNKRAPGTPARFSGSLLGGKAALTLSGAQPEDEAEYYCALWYSNLWVFGGGTKLTVLEPKSSDKTHTCPPCPAPEAAGGPSVFLFPPKPKDTLMISRTPEVTCVVVDVSHEDPEVKFNWYVDGVEVHNAKTKPREEQYNSTYRVVSVLTVLHQDWLNGKEYKCKVSNKALPAPIEKTISKAKGQPREPQVCTLPPSRDELTKNQVSLSCAVKGFYPSDIAVEWESNGQPENNYKTTPPVLDSDGSFFLVSKLTVDKSRWQQGNVFSCSVMHEALHNRYTQKSLSLSPGK
notes: Heterodimer of two chains (Format 1): one anti-GPC3 VHH on Knob-Fc, one anti-CD3 scFv on Hole-Fc; also called anti-CD3-GPC3 bispecific antibody; Format 1
On to B1, for which the EC50 – broadly, the concentration that produces a half-maximal response – in test [1] came to 23.9 nM. In test [2], the Kd (usually a measure of binding affinity in units of concentration) came out at 9.15 nM; the koff (usually a measure of how fast the partners let go of each other) came to 0.00276 s⁻¹; the kon – broadly, the rate constant with which the complex forms – is 302000 M⁻¹ s⁻¹. In test [3], this molecule yielded a Kd of 3.49 nM, a koff of 0.00286 s⁻¹ and a kon of 820000 M⁻¹ s⁻¹. Also, in test [4], the affinity, expressed as Kd, was 5.66 nM; the koff was 0.00427 s⁻¹; the kon was 755000 M⁻¹ s⁻¹.

B2: bispecific antigen-binding molecule G156 (bispecific antibody)
chain 1: not shown
chain 2: B1 chain 2
notes: Heterodimer of two chains (Format 2): two anti-GPC3 VHH on the Knob-Fc chain, one anti-CD3 scFv on Hole-Fc; also called anti-CD3-GPC3 bispecific antibody; Format 2
Molecule B2 displayed an EC50 in test [1] of 27.4 nM. In test [2], this molecule showed a Kd of 9.62 nM, a koff of 0.00275 s⁻¹ and a kon of 285000 M⁻¹ s⁻¹. Further, in test [3], binding was put at a Kd of 1.3 nM, the koff turned out to be 0.00193 s⁻¹ and the kon came to 1.48e+06 M⁻¹ s⁻¹. For the same molecule, in test [4], the Kd was 2.79 nM, the koff stood at 0.00367 s⁻¹ and the kon is 1.32e+06 M⁻¹ s⁻¹.
